From article PMC2172640 (The Journal of Cell Biology, 2003)

T1: HA95 (human (endogenous in Bjab and HeLa), UniProt Q9ULX6 1-646)
T1 sequence (looked up): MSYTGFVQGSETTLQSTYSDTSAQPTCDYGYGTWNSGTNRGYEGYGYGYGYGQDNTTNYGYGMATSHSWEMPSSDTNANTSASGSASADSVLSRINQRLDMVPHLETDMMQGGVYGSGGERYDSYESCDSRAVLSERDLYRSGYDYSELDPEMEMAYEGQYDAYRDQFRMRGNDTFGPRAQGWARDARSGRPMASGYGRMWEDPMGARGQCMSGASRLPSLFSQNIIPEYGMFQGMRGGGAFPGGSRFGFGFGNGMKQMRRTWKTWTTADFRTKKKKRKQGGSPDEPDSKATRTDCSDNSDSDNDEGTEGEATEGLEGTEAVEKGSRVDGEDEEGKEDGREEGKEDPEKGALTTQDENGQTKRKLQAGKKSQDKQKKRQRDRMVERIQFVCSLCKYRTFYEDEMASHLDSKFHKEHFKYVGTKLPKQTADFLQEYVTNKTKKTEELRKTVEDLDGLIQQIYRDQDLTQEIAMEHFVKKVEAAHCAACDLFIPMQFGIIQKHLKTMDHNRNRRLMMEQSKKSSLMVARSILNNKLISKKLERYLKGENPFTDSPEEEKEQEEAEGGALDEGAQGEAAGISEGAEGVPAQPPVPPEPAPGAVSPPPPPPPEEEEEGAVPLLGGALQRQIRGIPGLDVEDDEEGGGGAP

B1: GST–LAP2β(243–373) (domain or fragment, UniProt Q62733 243-373, looked up)
chain: QALTRESTRGSRRTPRRRVEPSQHFRVDGAVISESTPIAETIKASSNDSLVANRLTGNFKHASSILPITEFSDITRRTPKKPLTRAEVGEKTEERRVERDILKEMFPYEASTPTGISASCRRPIKGAAGRP
B2: GST–LAP2β(137–298) (domain or fragment, UniProt Q62733 137-298, looked up)
chain: TRKLYEKKLLKLREQGAESRSSTPLPTVSSSAENTRQNGSNDSDRYSDNDEDSKIELKLEKREPLKGRAKTPVTLKQRRIEHNQSYSEAGVTETEWTSGSSKGGPLQALTRESTRGSRRTPRRRVEPSQHFRVDGAVISESTPIAETIKASSNDSLVANRLT
B3: GST–LAP2β(299–373) (domain or fragment, UniProt Q62733 299-373, looked up)
chain: GNFKHASSILPITEFSDITRRTPKKPLTRAEVGEKTEERRVERDILKEMFPYEASTPTGISASCRRPIKGAAGRP
B4: GST–LAP2β(1–298) (domain or fragment, UniProt Q62733 1-298, looked up)
chain: MPEFLEDPSVLTKDKLKSELVANNVTLPAGEQRKDVYVQLYLQHLTARNRPPLAAGANSKGPPDFSSDEEREPTPVLGSGASVGRGRGAVGRKATKKTDKPRPEDKDDLDVTELSNEELLEQLVRYGVNPGPIVGTTRKLYEKKLLKLREQGAESRSSTPLPTVSSSAENTRQNGSNDSDRYSDNDEDSKIELKLEKREPLKGRAKTPVTLKQRRIEHNQSYSEAGVTETEWTSGSSKGGPLQALTRESTRGSRRTPRRRVEPSQHFRVDGAVISESTPIAETIKASSNDSLVANRLT
B5: GST–LAP2β(1–397) (domain or fragment, UniProt Q62733 1-397, looked up)
chain: MPEFLEDPSVLTKDKLKSELVANNVTLPAGEQRKDVYVQLYLQHLTARNRPPLAAGANSKGPPDFSSDEEREPTPVLGSGASVGRGRGAVGRKATKKTDKPRPEDKDDLDVTELSNEELLEQLVRYGVNPGPIVGTTRKLYEKKLLKLREQGAESRSSTPLPTVSSSAENTRQNGSNDSDRYSDNDEDSKIELKLEKREPLKGRAKTPVTLKQRRIEHNQSYSEAGVTETEWTSGSSKGGPLQALTRESTRGSRRTPRRRVEPSQHFRVDGAVISESTPIAETIKASSNDSLVANRLTGNFKHASSILPITEFSDITRRTPKKPLTRAEVGEKTEERRVERDILKEMFPYEASTPTGISASCRRPIKGAAGRPLELSDFRMEESFSSKYVPKYVPLA
B6: GST–LAP2β(1–452) (domain or fragment, UniProt Q62733 1-452, looked up)
chain: MPEFLEDPSVLTKDKLKSELVANNVTLPAGEQRKDVYVQLYLQHLTARNRPPLAAGANSKGPPDFSSDEEREPTPVLGSGASVGRGRGAVGRKATKKTDKPRPEDKDDLDVTELSNEELLEQLVRYGVNPGPIVGTTRKLYEKKLLKLREQGAESRSSTPLPTVSSSAENTRQNGSNDSDRYSDNDEDSKIELKLEKREPLKGRAKTPVTLKQRRIEHNQSYSEAGVTETEWTSGSSKGGPLQALTRESTRGSRRTPRRRVEPSQHFRVDGAVISESTPIAETIKASSNDSLVANRLTGNFKHASSILPITEFSDITRRTPKKPLTRAEVGEKTEERRVERDILKEMFPYEASTPTGISASCRRPIKGAAGRPLELSDFRMEESFSSKYVPKYVPLADVKSEKTKKGRSVPMWIKMLLFALVAGFLFLVYQAMETNQGNPFTNFLQDTKISN
B7: GST–LAP2β(137–373) (domain or fragment, UniProt Q62733 137-373, looked up)
chain: TRKLYEKKLLKLREQGAESRSSTPLPTVSSSAENTRQNGSNDSDRYSDNDEDSKIELKLEKREPLKGRAKTPVTLKQRRIEHNQSYSEAGVTETEWTSGSSKGGPLQALTRESTRGSRRTPRRRVEPSQHFRVDGAVISESTPIAETIKASSNDSLVANRLTGNFKHASSILPITEFSDITRRTPKKPLTRAEVGEKTEERRVERDILKEMFPYEASTPTGISASCRRPIKGAAGRP
B8: GST–LAP2β(299–397) (domain or fragment, UniProt Q62733 299-397, looked up)
chain: GNFKHASSILPITEFSDITRRTPKKPLTRAEVGEKTEERRVERDILKEMFPYEASTPTGISASCRRPIKGAAGRPLELSDFRMEESFSSKYVPKYVPLA
B9: GST–LAP2β(243–397) (domain or fragment, UniProt Q62733 243-397, looked up)
chain: QALTRESTRGSRRTPRRRVEPSQHFRVDGAVISESTPIAETIKASSNDSLVANRLTGNFKHASSILPITEFSDITRRTPKKPLTRAEVGEKTEERRVERDILKEMFPYEASTPTGISASCRRPIKGAAGRPLELSDFRMEESFSSKYVPKYVPLA

Biological target: T1, HA95
Assay: far-Western, overlay or dot blot

binding result | Binder
binds | B1
binds | B2
binds | B3
binds | B4
binds | B5
binds | B6
binds | B7
binds | B8
binds | B9
